The source of these data is article PMC9482650, “Quantitative fragmentomics allow affinity mapping of interactomes” (Nature Communications, 2022).

As usually defined, the pKd is the Kd on a negative log10 scale, so that one unit is a factor of ten.

Among the targets are PDZRN4_1, Q6ZMN7; DLG1_3, Q12959; GRIP2_7, Q9C0E4; NHERF4_4, Q86UT5; CASK, O14936; MAGI1_2, Q96QZ7; DLG1_2, Q12959; LNX1_3, Q8TBB1; MAGI2_2, Q86UL8; DLG1_1, Q12959; MAGI2_4, Q86UL8; Inadl_5, Q8NI35.
What all share (test): holdup assay
Holding throughout (set-up): key: below the threshold = too weak to quantify, mostly under pKd 3.1 to 4
What all share (conditions): plain residues with an end cap or a label only (N-terminal biotin on a linker: ado-ado)

A further experiment deals with T1, LRRC7, Q96NW7.
T1 sequence (Q96NW7 1440-1537, limits assumed, looked up): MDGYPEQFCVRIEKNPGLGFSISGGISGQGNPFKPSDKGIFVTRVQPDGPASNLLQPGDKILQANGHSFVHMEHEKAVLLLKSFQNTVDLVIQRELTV

A further experiment has as its target T2, MPDZ_12, O75970.
T2 sequence (O75970 1857-1958, limits assumed, looked up): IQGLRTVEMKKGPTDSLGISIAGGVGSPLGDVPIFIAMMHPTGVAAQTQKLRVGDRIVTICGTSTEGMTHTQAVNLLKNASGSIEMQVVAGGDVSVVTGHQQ

A further experiment concerns the target T3, GRIP1_7, Q9Y3R0.
T3 sequence (Q9Y3R0 999-1096, limits assumed, looked up): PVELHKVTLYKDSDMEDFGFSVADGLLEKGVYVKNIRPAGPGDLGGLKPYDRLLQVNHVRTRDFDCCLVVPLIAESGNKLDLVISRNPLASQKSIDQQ

A further experiment deals with T4, PTPN13_1, Q12923.
T4 sequence (Q12923 1088-1188, limits assumed, looked up): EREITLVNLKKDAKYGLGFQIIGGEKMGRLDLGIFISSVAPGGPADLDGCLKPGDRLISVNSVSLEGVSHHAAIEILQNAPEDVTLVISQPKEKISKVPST

For another experiment, the target named is T5, MPDZ_10, O75970.
T5 sequence (O75970 1624-1722, limits assumed, looked up): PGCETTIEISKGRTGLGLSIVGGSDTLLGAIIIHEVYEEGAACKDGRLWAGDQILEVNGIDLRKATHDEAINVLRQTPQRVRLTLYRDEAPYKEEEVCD

The next experiment concerns the target T6, SYNJ2BP, P57105.
T6 sequence (P57105 8-110, limits assumed, looked up): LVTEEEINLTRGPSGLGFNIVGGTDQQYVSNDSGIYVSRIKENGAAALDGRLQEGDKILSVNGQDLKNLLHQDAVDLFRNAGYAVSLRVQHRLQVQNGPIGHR

Another experiment deals with T7, SNTA1, Q13424.
T7 sequence (Q13424 82-180, limits assumed, looked up): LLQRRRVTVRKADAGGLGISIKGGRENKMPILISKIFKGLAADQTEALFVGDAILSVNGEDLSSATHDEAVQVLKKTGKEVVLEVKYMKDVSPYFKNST

The target in another experiment is T8, RHPN1, Q8TCX5.
T8 sequence (Q8TCX5 508-602, limits assumed, looked up): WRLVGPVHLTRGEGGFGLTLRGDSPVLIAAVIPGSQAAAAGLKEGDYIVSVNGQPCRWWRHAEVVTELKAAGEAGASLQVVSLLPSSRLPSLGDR

The next experiment concerns the target T9, NHERF3_1, Q5T2W1.
T9 sequence (Q5T2W1 4-100, limits assumed, looked up): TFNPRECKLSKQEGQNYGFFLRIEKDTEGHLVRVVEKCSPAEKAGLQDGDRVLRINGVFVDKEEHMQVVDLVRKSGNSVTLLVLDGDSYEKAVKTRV

Another experiment concerns the target T10, DFNB31_2, Q9P202.
T10 sequence (Q9P202 274-371, limits assumed, looked up): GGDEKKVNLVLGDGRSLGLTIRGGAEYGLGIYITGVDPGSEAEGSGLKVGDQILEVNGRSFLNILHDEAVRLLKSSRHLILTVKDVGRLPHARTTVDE

In another experiment the target is T11, APBA2_1, Q99767.
T11 sequence (Q99767 563-664, limits assumed, looked up): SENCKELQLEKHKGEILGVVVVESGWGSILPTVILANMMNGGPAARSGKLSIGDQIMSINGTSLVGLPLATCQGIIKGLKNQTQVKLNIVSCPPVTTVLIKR

In another experiment the target is T12, APBA3_1, O96018.
T12 sequence (O96018 389-490, limits assumed, looked up): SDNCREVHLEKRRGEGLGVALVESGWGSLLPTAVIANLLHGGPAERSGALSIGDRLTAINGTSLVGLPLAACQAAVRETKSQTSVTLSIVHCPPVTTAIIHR

A further experiment deals with T13, TJP3_3, O95049.
T13 sequence (O95049 375-456, limits assumed, looked up): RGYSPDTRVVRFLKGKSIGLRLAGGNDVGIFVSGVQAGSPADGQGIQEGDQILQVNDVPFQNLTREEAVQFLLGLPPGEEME

Inadl_5, Q8NI35, sequence (Q8NI35 673-780): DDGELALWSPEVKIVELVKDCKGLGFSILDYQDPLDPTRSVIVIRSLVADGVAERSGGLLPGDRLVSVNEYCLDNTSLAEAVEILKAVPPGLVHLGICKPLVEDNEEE
MAGI1_2, Q96QZ7, sequence (Q96QZ7 456-580): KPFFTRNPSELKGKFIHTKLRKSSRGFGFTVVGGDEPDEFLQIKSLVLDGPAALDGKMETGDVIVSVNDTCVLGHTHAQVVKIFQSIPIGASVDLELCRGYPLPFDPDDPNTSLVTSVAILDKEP
NHERF4_4, Q86UT5, sequence (Q86UT5 464-550): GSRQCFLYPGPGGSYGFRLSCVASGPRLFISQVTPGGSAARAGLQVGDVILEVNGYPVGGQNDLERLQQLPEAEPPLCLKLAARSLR
CASK, O14936, sequence (O14936 487-570): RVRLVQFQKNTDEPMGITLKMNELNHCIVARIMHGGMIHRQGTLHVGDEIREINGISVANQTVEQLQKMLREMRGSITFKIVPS
PDZRN4_1, Q6ZMN7, sequence (Q6ZMN7 213-318): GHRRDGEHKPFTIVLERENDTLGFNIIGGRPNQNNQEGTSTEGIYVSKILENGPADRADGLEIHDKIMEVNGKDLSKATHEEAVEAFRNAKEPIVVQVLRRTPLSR
LNX1_3, Q8TBB1, sequence (Q8TBB1 500-596): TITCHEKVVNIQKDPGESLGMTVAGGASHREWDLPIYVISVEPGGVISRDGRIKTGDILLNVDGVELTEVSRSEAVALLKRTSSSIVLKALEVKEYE
MAGI2_2, Q86UL8, sequence (Q86UL8 410-522): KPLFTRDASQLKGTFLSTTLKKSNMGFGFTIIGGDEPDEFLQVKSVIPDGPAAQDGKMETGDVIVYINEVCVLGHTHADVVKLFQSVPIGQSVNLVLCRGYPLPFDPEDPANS
GRIP2_7, Q9C0E4, sequence (Q9C0E4 934-1023): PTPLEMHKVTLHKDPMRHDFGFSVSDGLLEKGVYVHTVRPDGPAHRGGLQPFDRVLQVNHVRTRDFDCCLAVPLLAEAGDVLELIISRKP
MAGI2_4, Q86UL8, sequence (Q86UL8 772-865): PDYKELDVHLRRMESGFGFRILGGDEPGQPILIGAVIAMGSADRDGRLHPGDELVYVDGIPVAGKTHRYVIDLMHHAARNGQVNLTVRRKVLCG

Take SRSVVESDEL [MYPN, Q86TC9]: the pKd result is given as “below the threshold” with LRRC7, Q96NW7; “below the threshold” with MPDZ_12, O75970; “below the threshold” with GRIP1_7, Q9Y3R0; “below the threshold” with PTPN13_1, Q12923; “below the threshold” with PDZRN4_1, Q6ZMN7; “below the threshold” with MPDZ_10, O75970. Further, the pKd result is “below the threshold” with DLG1_3, Q12959; “below the threshold” in the experiment with GRIP2_7, Q9C0E4; “below the threshold” with NHERF4_4, Q86UT5; “below the threshold” with SYNJ2BP, P57105; “below the threshold” in the experiment with CASK, O14936; “below the threshold” with MAGI1_2, Q96QZ7. Moreover, the pKd in the experiment with SNTA1, Q13424 is 3.6; with RHPN1, Q8TCX5, “below the threshold”; in the experiment with DLG1_2, Q12959 it was “below the threshold”; in the experiment with LNX1_3, Q8TBB1, “below the threshold”; with NHERF3_1, Q5T2W1, 5.44; in the experiment with DFNB31_2, Q9P202, “below the threshold”. Besides, the pKd entry with APBA2_1, Q99767 is reported as “below the threshold”; in the experiment with APBA3_1, O96018, “below the threshold”; in the experiment with TJP3_3, O95049, “below the threshold”; with MAGI2_2, Q86UL8, “below the threshold”; in the experiment with DLG1_1, Q12959, “below the threshold”; in the experiment with MAGI2_4, Q86UL8, “below the threshold”. For the same molecule, the pKd entry with Inadl_5, Q8NI35 is on record as “below the threshold”.
For the molecule DTKNYKQTSV [CRIPT, Q9P021], the pKd with LRRC7, Q96NW7 was 3.92; with MPDZ_12, O75970, “below the threshold”; with GRIP1_7, Q9Y3R0, “below the threshold”; in the experiment with PTPN13_1, Q12923 it was “below the threshold”; with PDZRN4_1, Q6ZMN7, 4.12; with MPDZ_10, O75970 it was 3.98. Besides, the pKd was 5.26 with DLG1_3, Q12959; “below the threshold” with GRIP2_7, Q9C0E4; “below the threshold” with NHERF4_4, Q86UT5; 5.12 in the experiment with SYNJ2BP, P57105; “below the threshold” with CASK, O14936; 4.32 in the experiment with MAGI1_2, Q96QZ7. The pKd was 4.74 with SNTA1, Q13424; 4.07 with RHPN1, Q8TCX5; 5.07 with DLG1_2, Q12959; “below the threshold” with LNX1_3, Q8TBB1; 4.59 with NHERF3_1, Q5T2W1; 3.74 with DFNB31_2, Q9P202. For the same molecule, the negative-log Kd (pKd) result was “below the threshold” in the experiment with APBA2_1, Q99767; “below the threshold” in the experiment with APBA3_1, O96018; “below the threshold” with TJP3_3, O95049; 4.55 with MAGI2_2, Q86UL8; 4.35 with DLG1_1, Q12959; 3.87 with MAGI2_4, Q86UL8. The pKd result with Inadl_5, Q8NI35 is listed as “below the threshold”.
Consider IDESKKEWLI [CNTNAP2, Q9UHC6], for which the pKd entry is “below the threshold” with LRRC7, Q96NW7; “below the threshold” with MPDZ_12, O75970; “below the threshold” in the experiment with GRIP1_7, Q9Y3R0; “below the threshold” in the experiment with PTPN13_1, Q12923; “below the threshold” with PDZRN4_1, Q6ZMN7; “below the threshold” in the experiment with MPDZ_10, O75970. The pKd entry with DLG1_3, Q12959 is “below the threshold”; with GRIP2_7, Q9C0E4, 4.45; with NHERF4_4, Q86UT5 it was “below the threshold”; in the experiment with SYNJ2BP, P57105, “below the threshold”; with CASK, O14936, “below the threshold”; with MAGI1_2, Q96QZ7, “below the threshold”. In addition, the pKd entry with SNTA1, Q13424 is on record as “below the threshold”; with RHPN1, Q8TCX5 it was “below the threshold”; with DLG1_2, Q12959 it was “below the threshold”; with LNX1_3, Q8TBB1, “below the threshold”; in the experiment with NHERF3_1, Q5T2W1 it was “below the threshold”; in the experiment with DFNB31_2, Q9P202 it was “below the threshold”. In addition, the pKd entry was “below the threshold” with APBA2_1, Q99767; “below the threshold” with APBA3_1, O96018; “below the threshold” in the experiment with TJP3_3, O95049; 3.78 with MAGI2_2, Q86UL8; “below the threshold” with DLG1_1, Q12959; 3.47 with MAGI2_4, Q86UL8. The pKd entry with Inadl_5, Q8NI35 is given as “below the threshold”.
Consider KRPEMTSSSV [MUC3A, MUC3B, Q02505;Q9H195], for which the pKd result was “below the threshold” with LRRC7, Q96NW7; “below the threshold” with GRIP1_7, Q9Y3R0; “below the threshold” in the experiment with PDZRN4_1, Q6ZMN7; 3.73 in the experiment with MPDZ_10, O75970; “below the threshold” with DLG1_3, Q12959; “below the threshold” in the experiment with GRIP2_7, Q9C0E4. For the same molecule, the pKd is 5.02 in the experiment with SYNJ2BP, P57105; 1.76 with SNTA1, Q13424; 3.84 in the experiment with RHPN1, Q8TCX5; “below the threshold” in the experiment with LNX1_3, Q8TBB1; “below the threshold” with DFNB31_2, Q9P202; “below the threshold” in the experiment with APBA2_1, Q99767. Moreover, the pKd result in the experiment with APBA3_1, O96018 is “below the threshold”; with TJP3_3, O95049, “below the threshold”; with MAGI2_2, Q86UL8, 3.65; with DLG1_1, Q12959, 1.76; with MAGI2_4, Q86UL8, 1.79; in the experiment with Inadl_5, Q8NI35, “below the threshold”.
For the molecule KSRVAFFEEL [NF2, P35240;P35240-1], the pKd entry with MPDZ_12, O75970 was “below the threshold”; in the experiment with PTPN13_1, Q12923, “below the threshold”; with PDZRN4_1, Q6ZMN7 it was “below the threshold”; in the experiment with MPDZ_10, O75970 it was “below the threshold”; with GRIP2_7, Q9C0E4 it was “below the threshold”; in the experiment with NHERF4_4, Q86UT5, “below the threshold”. Moreover, the pKd entry in the experiment with SYNJ2BP, P57105 was “below the threshold”; with CASK, O14936, “below the threshold”; with SNTA1, Q13424, “below the threshold”; with RHPN1, Q8TCX5, “below the threshold”; in the experiment with NHERF3_1, Q5T2W1, 4.18; in the experiment with DFNB31_2, Q9P202, “below the threshold”. Moreover, the pKd entry in the experiment with APBA3_1, O96018 is “below the threshold”; in the experiment with TJP3_3, O95049, “below the threshold”; with MAGI2_2, Q86UL8, “below the threshold”; with DLG1_1, Q12959, “below the threshold”; in the experiment with Inadl_5, Q8NI35, “below the threshold”.
